Biological target: diffusible Aβ aggregates from postmortem frontal cortex of AD patients (human (endogenous in postmortem frontal cortex))
Assay: single-molecule pull-down (SiMPull); soaked-brain extracts (neat) of frontal cortex of APOE4/4 and APOE3/3 AD patients; captured by biotinylated 6E10; detected with Alexa-Fluor-647 6E10 and Alexa-Fluor-488 EPR19392; two-colour TIRF, colocalisation

percent of Aβ aggregates that are co-aggregates (colocalisation by number) [%]	Substance
1	apoE3 in frontal-cortex extracts of homozygous APOE3 AD patients (from UniProt P02649 19-317) (natural protein)
5	apoE4 in frontal-cortex extracts of homozygous APOE4 AD patients (from UniProt P02649 19-317) (natural protein)
